{"source": "the DeepSol protein solubility set", "data": [{"assay": "soluble on expression in E. coli; label from the status in PepcDB or PDB records", "values": [{"sequence": "MGSDKIHHHHHHMGLFDFLKKGLQKTKETFFGRVVKLLKGKKLDDETREELEELLIQADVGVETTEYILERLEEKDGDALESLKEIILEILNFDTKLNVPPEPPFVIMVVGVNGTGKTTSCGKLAKMFVDEGKSVVLAAADTFRAAAIEQLKIWGERVGATVISHSEGADPAAVAFDAVAHALARNKDVVIIDTAGRLHTKKNLMEELRKVHRVVKKKIPDAPHETLLVIDATTGQNGLVQAKIFKEAVNVTGIILTKLDGTAKGGITLAIARELGIPIKFIGVGEKAEDLRPFDPEAFVEVLLSE", "soluble on expression in E. coli": "soluble"}, {"sequence": "MGSDKIHHHHHHMGMILNGYLEVINHLQQLPLALILIFNLKIMKQIIYVFLLTVLSSCDSYLSKVPSPSTSAPINNVEQLVAIYDNATAFINETNPFACYSNDDADLTAELYKADPSAFAISSTVFYNILHTAGIASQASDGLWNGEYSNIFKANTIINNVDKVTGDESEKIKLKCNAHFLRAYSYFVLAQYYCLPYCEANKNALGLPKRLNTDFEESIARVSLDEIYQLILDDLEIAAVTPDKSVNPNFPWRICQATVNALLSRVYLTMGNYKEAQATAEKALEGAPELLDFNELGYAPVESYPEMEGLPAQDVYNCETHKWTTIKYLYWKEFLFPRFTYARSQWIIPSDDLVSLYDQQNDRRFKLFFVEHGNRRMGVPYEAYRYNQFYDGRYIISGLTTAEMLLNKAEAQIRQGMWQEGLKTLDVLREKRYEAGTYISLSAGNQSEALSIVLAERRREMPFSMRIPDIKRYGVNEILEDDVTVVKNFFEISMSEVFIDKPKTYTIPSNSLLWAMPINDVEIGSSNGAIQQNRYE", "soluble on expression in E. coli": "not soluble"}, {"sequence": "MGSDKIHHHHHHMGNEVYDAVVVGAGFAGLTAARELSRQGLAVHIVEARDRIGGRTWLDHRLGRDLEIGGTWVHWTQPHVWAELTRYGLETTPSPEPERAFWWADGCRHEGRPDELLGLIGQTNEEFVRDSRKYFPEPFRPMARDDFKSIDHVSVQARIREQFPAGAPRDILESFWALNFNGPLDNAALTQAFRWVALTNGDWAVNFEACATYKIVGGTAALAASMLADSGAGIQYGFKVEAVAEDADVVEIRSADGRTVRARTAIVTVPLHALNAVDFEPPLPAAKAEAASLGQVSKGAKVWFRLRGEHAPFVALGGADWPLNFFQVEYALDGDTIAVGFGPDAAKIEVEDPVAVQAQLARLVPGAEVVAVASHNWVDDPLSGETWPMHRTGFLSTHLPAMQASHGLVLFAGSDIANGWCGFIDGAIESGMGAALDAASLLAGGRP", "soluble on expression in E. coli": "not soluble"}, {"sequence": "MGSDKIHHHHHHMGNIEIKRVIAHHMDLGATKPTFLNNVIDISQEEMQDVIVFFGNHVKKALTTAQLKTCVFKNEDDEVYKYCKELAEDQSDDKLFVRVTRRMTIKLFYNMKRTSSTSSATLIFLHYFNVDSGKDYLGILKMDPNDGIELDPERVVFKVRKHMLPNVKERLHKSAFIKLDEKLFAEESHLYVLDKQQKMDGISKFFLEAFLNAKEVNSDKKTTAFFNTAVMEVARSEKVPNMFAIAKKVSDSMTEGKYIKVDSMLEEVLHDFIPGEEDRFDFIERVKQQMKKKNEDVQFEFTVEKEKEAISFLHNDDKSIQLRFKSILLGTDVFYDEEEDEDGNKFIVLKIREKNIESNFEFKK", "soluble on expression in E. coli": "not soluble"}, {"sequence": "MGSDKIHHHHHHMGNPSWINVFALVDYRSSSDTLYRVEEGLIPLETFDEINSGDPVVLSSFLNAYRGEDLSLLVIWNHGDWWRGESQKQVKGVAYDFVNLDFFTIKEIKSVLRDSPVTVLGFDACLMGTFEILWELKDCARYVVVSSKEAPGNGWDYSVLRYSKDLSSLLSNIVKRYGEIYGTEYSLSVWDTSKLDEIMLWLDRVAQYMIENNLSPWEFEVERRTAGGSTTELVELGSFAKSLQNSSDVVLREYGEGLYSAIVSARVYGTPDNYTDLTIYLPQNMKNPEYWDDFVALSDFTSESSWDDLIEHWRDKN", "soluble on expression in E. coli": "not soluble"}, {"sequence": "MGSDKIHHHHHHMGNVSTFSIPGPARIPSAATTPAPHPWNRYVALGDSFTEGYGDPEPQSPGGVRGWADRVAEELSLGHQDFAYANLAVRGRLLQQIMDDQLGPALELRPDLVTLSAGGNDLVFRGSDPDKLAERLDPAIGLLSATGATVVLFTGPDWGNTPVFGRIRGKVAIFNENLRTIAARHDGVVADLWTLRQLAAPHMWDPDRLHFSPLGHHTIAAMVLETLNVPHTLKPLEPKVLPVSSWREARSSDLVWAKDYLFPWVVRRVRQRPANLGLKAKRPEPGPIFGPGVAHGPFPAGPLTAGKP", "soluble on expression in E. coli": "not soluble"}, {"sequence": "MGSDKIHHHHHHMGQPFVHPTGVTIYNPEKCFNGYTIMQAPGLGCVLIDMNGNVVRVFKDLHGFPNKLLPGGYVMGSRGRRNGKFGYQDQIDLVQVDWDGQVVWEFAKKEYIEDEGEKPQWMARQHHDYQREGNPVGYYVPGMECKTNSGNTLILSHQNCYHKKISDKQLLDDVIIEVDWDGNIVWEWHAVDHFHEYGFSAAAKLALYRNPNMHEAGGGMGDWMHINSASVLGPNKWYDKGDERFHPDNIIWDAREANIMAIISKETGKVVWKMGPDFAQDKKLRKIGQIIGQHHVHMIPQGLPGAGNILIFDNGGWAGYGAPNNVSKDGTKVDMADRSRVLELNPVTMEVVWQLKASELMDYGQPGISDYRFYSPLTSAAQRLPNGNTLITEGCGGRFFEVTRMKEVVWEFISPFNANPATIYYRAYRYPYSYVPQLPEPKETPVPMLDIRKFRVPGAASCEVQHVVGVEGTIGYPAMQQACVAAADQDLSLKDDDDDDLFSRSF", "soluble on expression in E. coli": "not soluble"}, {"sequence": "MGSDKIHHHHHHMGRLFYKPENAWVGDLIPYYENGTYYGFYLHDPRIRDKEYAEDTTWHLIETKDFVNLDYKGESIARGGIHDANKNAYTGSVIKCEKDGLYHVFYTAYNEDFKLRGKTIQSVMQATGKNLENLETVKDFLFVSDGKQYEEFDWRDPFVFWNDEDQCYYMLLASRVTNRGDLRGGCIALCKSEDLINWTYEKPFYDPKMYITMECPELFKMGEYWYLVFSTFSDQFTTHYRISKNWNGPWEIPDDDVFDTRADYAIKTASDGKRRFAFGWIASKYGNTDFGPWEWGGTMNFHEIIQNSKNGELRIKAIPEVLDYFSKEIELKKETLYNCKMVQAQDGVSVESDTLGALLYPLEGDTFALDMVIKPERYHEFGIALHVDKELETGYFLRMNPKNQLVAWDMWPRGEQGRYQWQIKGDVPYQIETARKLPKAEEYRVHIIKEKDICVVYINDEIVLSTRMYNHKDGYAGIYVVQGDVKLIQYKEKRSE", "soluble on expression in E. coli": "not soluble"}, {"sequence": "MGSDKIHHHHHHMGVKTAAIKPQINRFFERIINMIIDRERVKNTFAEYTSGYNATDPKIKLKIDHTYRVAELCELIARNLKLDEYETDVAWLTGMLHDVGRFEQIKCYNTFNDALSVDHANFGADLLFKEGLIDTYVDGFHDDKYGTIVENAIRNHSAFRIDERLDEYTVMFCNILRDADKVDIFRVNVDTPAEDIYNVTTEELKNSQVSPEVMAAFDERHAVLRSCKKTVVDHVAGHIALTFELVYPISLQIANERGYLDKMMAFESDNEVTGKQFEEIRAKLNEYVASVKPL", "soluble on expression in E. coli": "not soluble"}, {"sequence": "MGSDKIHHHHHHMGVMMKQKIKILTVIGLMTVGMSACHNTSKPSNTDSVFSLTGKKRQQIVKQVRQRYYFQQLSKTEQENYLTLYDSLAQFREIISLTPASKKSLIKTIDAFVMDNPEFYWITSADYRFEFSDQTVFVTFPIPEDAKNIYQDLQAIGNDIVANTPSKDRYEQVKYFYEVIIRDTDYNKKAFEAYQSGSQAQVASNQDIKSVFIDHLSVCNGYAQAFQFLCQKAGIPVAYIRGTGTSQQPQQSFAHAWNAVQINNTYYGVDVTWGDPVFDNHLSHQKQGTINYSFLCLPDYLMALSHQPSKDIAFNTKERFENVWTIPSCTDDSLLYSKRHQSYISTFDSDAILASLENQLLNRQEPLSLQFAHQDDYQQMVTDLTTNQTGYHNLFNQYWNNYTGFTYGLLPETLSISFASRN", "soluble on expression in E. coli": "not soluble"}, {"sequence": "MGSDKIHHHHHHMGYRTLKSIFHEHNESKMKEEYTKRFNSLASFNTNINIIPMENGKKVNDLEYPLFFMVTKNLSKKQELISINSRKIDRALNSLPYAAREQYFNDLLIDELQSTNEIENVFSTKQEIAHALNNQASEFLKFRGLVDQYKEIELNKKIKVDNVRDIRAIYDKLVSNEINEQDKLDGELFRKNFVGVHDGSTNKYIHVGLQPETKIVEYIGEMLTFLKYFDAPQPFKIMASHYLFEYIHPFYDGNGRVGRFIIAKLLSDYYDNYTALTFSYVINRNKSKYYKAFMTASNHLNCGDLTEFIDTMLELLIAGQERILDELIPKMDATEKLTLYLTSHYKQIDYEFLYLLSMDKLFGNKRNRLTLIDLENILGVGRVKINNTIKKYDNYLVKIKSRPIIYEISDEFLNSIIK", "soluble on expression in E. coli": "not soluble"}]}]}
